# Measurements published in IntAct's records for PubMed 22265973.
# B1: Synaptotagmin-2 (Rattus norvegicus (Rat)), P29101 (parent)
# chain: MRNIFKRNQEPIVAPATTTATMPLAPAAPADNSTESTGTGESQEDMFAKLKDKFFNEINKIPLPPWALIAMAVVAGLLLLTCCFCICKKCCCKKKKNKKEKGKGMKNAMNMKDMKGGQDDDDAETGLTEGEGEGEEEKEPENLGKLQFSLDYDFQANQLTVGVLQAAELPALDMGGTSDPYVKVFLLPDKKKKYETKVHRKTLNPAFNETFTFKVPYQELGGKTLVMAIYDFDRFSKHDIIGEVKVPMNTVDLGQPIEEWRDLQGGEKEEPEKLGDICTSLRYVPTAGKLTVCILEAKNLKKMDVGGLSDPYVKIHLMQNGKRLKKKKTTVKKKTLNPYFNESFSFEIPFEQIQKVQVVVTVLDYDKLGKNEAIGKIFVGSNATGTELRHWSDMLANPRRPIAQWHSLKPEEEVDALLGKNK
# Variants of: B1
# Details: with bxb_clobo botB
row,Variant,effect of a mutation on the interaction
1,F54L,disrupting interaction

# Variants of: B1
# Details: with bxb_clobo botB
# Remark: another data set of the same source
row,Variant,effect of a mutation on the interaction
1,F54A,disrupting interaction
